Data published in the nanobody polyreactivity screen of Harvey et al. (2022).

Assay: yeast display, Sf9 membrane polyspecificity reagent, FACS + sequencing; frameworks hold sequencing errors
Outline: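 Sorting gates, low and high (top ~1%), were placed on anti-HA fluorescence to track expression and on streptavidin fluorescence to track reagent binding. A clone's polyreactivity label is taken from the gate it came out of. The reagent was 10% biotinylated, detergent-solubilized Sf9 membrane, applied for 1 hour at 4 °C to galactose-induced yeast display cells.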

Row | Sequence | polyreactivity (PSR sort gate)
1 | QVQLVESGGGLVQAGGSLRLSCAASGRIFGKYAMGWYRQAPGKERELVAANSRSCASTYYADSVKGRFTISRDNAKNTVYLQMNSLKPEDTAVYYCAAVPPYNYRFRVDYWGQGTQVTVSS | high polyreactivity
2 | QVQLVESGGGLVQAGGSLRLSCAASGRIFGKYAMGWYRQAPGKEWELVAAISSSGGSTYYADSVKGRFTISRDNAKNTVYLQMNSLKPEDTAVYYCNAPQYWRRSYREYDYWGQGTQVTVSS | high polyreactivity
3 | QVQLVESGGGLVQAGGSLRLSCAASGRIFGKYPMGWYRQAPAKERELVAAIRITGGSTYYADSVKGRFTISRDNAKNTVYLQMNSLKPEDTAVYYCAAVYKYADVIYDYWGQGTQVTVSS | high polyreactivity
4 | QVQLVESGGGLVQAGGSLRLSCAASGRIFGKYVMGWYRQAPGKERELVAAIRSSGGSTYYADSVKGRFTISRDNAKNTVYLQLNSLKPEDTAVYYCAKRLHYSAPRYTENDYWGQGTQVTVSS | high polyreactivity
5 | QVQLVESGGGLVQAGGSLRLSCAASGRIFGLYAMGWYRQAPGKERELVAAISVISTGPYYADSVKGRFTISRDNAMNTVYFQMNSLKPEDTAVYYCNADSVQYTPPESDYWGQGTQVTVSS | low polyreactivity
6 | QVQLVESGGGLVQAGGSLRLSCAASGRIFGLYAMGWYRQAPGKERELVAAITDSDGSTYYADSVKGRFTISRDNAKNTVYLQMNSLKPEDTAVYYCNKRLPLIRTSWAYDYWGQGTQVTVSS | low polyreactivity
7 | QVQLVESGGGLVQAGGSLRLSCAASGRIFGLYAMGWYTQAPGKERELVAAYADSVKGRFTISRDNAKNTVYLQMNSRKPVDTAVYYCAKGPLYAGSTIDLRDFNYWGQGTQVTVSS | low polyreactivity
8 | QVQLVESGGGLVQAGGSLRLSCAASGRIFGLYLGWYRQAPGKERELVATITWRGGSTYYADSVKGRFTISRDNAKNTVYLHLNSVKPEDTEVYYCAARGYRGRMGYWGQGTQVTVSS | low polyreactivity
9 | QVQLVESGGGLVQAGGSLRLSCAASGRIFGNYAMGWYRQAPGKERELVAAISGGGSTYYADSVKGRFTISRDNAKNTVYLQMNSLKPEDTAVYYCAARFLWSVFGRKGGFWGQGTQVTVSS | low polyreactivity
10 | QVQLVESGGGLVQAGGSLRLSCAASGRIFGNYAMGWYRQAPGKERELVAAITSGARTYYADSVKGRFTISRDNAKNTVYLQMNSLKPEDTAVYYCAAYHKSYSYRYDYWGQGTQVTVSS | high polyreactivity
11 | QVQLVESGGGLVQAGGSLRLSCAASGRIFGPYAMGWDRQAPGKERELVAAITWRGDRTYYADSVKGRFTISRDNPKNTVYLQMNSLKPEDTAVYYCAARGGRSEYDYWGQGTQVTVSS | low polyreactivity
12 | QVQLVESGGGLVQAGGSLRLSCAASGRIFGPYAMGWYRQAPGKERELVAAITWSSGITYYADSVKGRFTISRDNAKNTVYLQMNSLKPEDTAVYYCAADSRLPYYRIMEYWGQGTQVTVSS | low polyreactivity
13 | QVQLVESGGGLVQAGGSLRLSCAASGRIFGPYAMGWYRQAPGKEREWVAAISYSGGRTRYADSVKGRFTISRDNAKNTVYLQMNSLKPEDTAVYYCNRVIPTQSLRDYYWGQGTQVTVSS | high polyreactivity
14 | QVQLVESGGGLVQAGGSLRLSCAASGRIFGPYTMAWYRQAPRKERELVAAISRRGGSTYYADSVKGRFTISRDNAKNTVYLQMTSLKPEDTAVYYCAAKIYFLAILYDYWGQGTQVTVSS | high polyreactivity
15 | QVQLVESGGGLVQAGGSLRLSCAASGRIFGQNAMGWYRQSPGKERELVAVITSRGTRTYYADSVKGRFTISRDNAKNTVYLQMNSLNQEDTAVYYCAADVYSDNYKTWPYDYWGQGTQVTVSS | low polyreactivity
16 | QVQLVESGGGLVQAGGSLRLSCAASGRIFGQNVMGWYRQAPGKERELVAAITSAGRTYYADSVKGRFTISRDNAKNTVYLQMNSLKPEDTAVYYCAKVVSRKGYGYWGQGTQVTVSS | high polyreactivity
17 | QVQLVESGGGLVQAGGSLRLSCAASGRIFGRNAMGWYIQAPGTERELVAAISKSGTSTYYADSVKGRFTISRDNAKNTVYLQMNSLKPEDTAVYYCAAALPGYGDYYYWGQGTQVTVSS | high polyreactivity
18 | QVQLVESGGGLVQAGGSLRLSCAASGRIFGRNAMGWYRQAPGKERELVAAISSGGSTYYADSVKGRFTISRDNAKNTVYLQMNSLKPEDTAVYFCAVRGSYYNGGRAFESWGQGTQVTVSS | high polyreactivity
19 | QVQLVESGGGLVQAGGSLRLSCAASGRIFGRNAMGWYRQAPGKERELVAAISSSGGTYYADSVKGRFTISRDNAKNTVYLQMNSLKPEDTAVYYCAADGPVTGWFYTAIGWVKYDYWGQGTQVTVSS | high polyreactivity
20 | QVQLVESGGGLVQAGGSLRLSCAASGRIFGRTAMGWYRKAPGKERELVAAISWRGGNTYYADSVKGRFTISRDNAKNTVYLQMNSLKPEDTAVYYCNTVQYRNEMGYWGQGTQVTVSS | high polyreactivity
21 | QVQLVESGGGLVQAGGSLRLSCAASGRIFGRYALGWYRQAPGKERELVAAISSSGGSTYFADSVKGRFTISRDNAKNTVYLQMNSLKPEDTAGYYCAADVSAKRYYWGQGTQVTVSS | high polyreactivity
22 | QVQLVESGGGLVQAGGSLRLSCAASGRIFGRYAMGWYRPAPGKERELVAGISARGGSTYYADSVKGRFTISRDNAKNTVYLQMNSLKPEDTAVYYCAARPYSIVPYDYWGQGTQVTVSS | high polyreactivity

Row | Sequence | polyreactivity (PSR sort gate)
23 | QVQLVESGGGLVQAGGSLRLSCAASGRIFGRYAMGWYRQAPGKERELVAAISSGSSTNYADSLKGRFTISRDNAKNTVYLQMNSLKPEDTAVYYCAVVLYRHWWYDYWGQGTQVTVSS | high polyreactivity
24 | QVQLVESGGGLVQAGGSLRLSCAASGRIFGRYAMGWYRQAPGKERELVAAITSSGGNTYYADSVKGRFTISRDNAKNTVYLQMNSLKPEDTAVYYCNALSARSRLQSDYWGQGTQVTVSS | high polyreactivity
25 | QVQLVESGGGLVQAGGSLRLSCAASGRIFGRYAMGWYRQAPGKERELVASITRRGGSTYYADSVKGRFTISRDNAKNTVYLQMNSLKPEDTAVYYCAAGGFSWEGDSWGQGTQVTVSS | high polyreactivity
26 | QVQLVESGGGLVQAGGSLRLSCAASGRIFGRYAMGWYRQAPGKERELVAVISARGARTYYADSVKGRFTISRDNAKHTVYLQMNSLKPEDTAVYYCAVDQYATDDYWGQGTQVTVSS | high polyreactivity
27 | QVQLVESGGGLVQAGGSLRLSCAASGRIFGRYVMGWYRQAPGKERELVAAITSRDDSTYYADSVKGRFTISRDNAKNTVYLQMNSLKPEDTAVYYCAATWGRGYDYWGQGTQVTVSS | high polyreactivity
28 | QVQLVESGGGLVQAGGSLRLSCAASGRIFGSFAMGWYRQAPGKERELVAAITKRGGRTYYADSVKGRFTISRDNANNTVYLQMNSLKPEDTAVYYCRIASYDYWGQGTQVTVSA | high polyreactivity
29 | QVQLVESGGGLVQAGGSLRLSCAASGRIFGSNPMGWYRQAPGKERELVAAISSGGSTSYADSVKGRFTISRDNAKKTVYLQMNSLKPEDTAVYYCAADRFAFYGRYRGPYYYWGQGTQVTVSS | high polyreactivity
30 | QVQLVESGGGLVQAGGSLRLSCAASGRIFGSYAMGWYRQAPGKERELVAAITRSGGSTYYADSVKGRFTISRDNAKNTVYLQMNSLKPEDTAVYYCAARYGIRYAYFGRFDYWGQGTQVTVSS | high polyreactivity
31 | QVQLVESGGGLVQAGGSLRLSCAASGRIFGSYAMGWYRQAPGKERELVAGIRSVGSTYYADSVKGRFTISRDNAKNTVYFQMNSLKPEDTAVYYCAAEYFNQNTRQGYDSWGQGSQVTVSS | low polyreactivity
32 | QVQLVESGGGLVQAGGSLRLSCAASGRIFGSYAMGWYRQAPGKERELVASIRSGGRTKYADSVKGRFTISRDNAKNTVYLQMNSLKPEVTAVYYCAVPIEWDYGYWGQGTQVTVSS | low polyreactivity
33 | QVQLVESGGGLVQAGGSLRLSCAASGRIFGSYAMGWYRQAPGKERELVASIRSRGGRTYYADSVKGRFTISRDNAKNTVYLQMNSLKPEDTAVYYCAADVGVYYYSFYYWGQGTQVTVSS | high polyreactivity
34 | QVQLVESGGGLVQAGGSLRLSCAASGRIFGSYTMGWYRQAPGKERELVAAISFSGARTRYADSVKGRFTISRDNAKNTVYLQMNSLKPEDTAVYYCAARFTGGKYDYWGQGTQVTVSS | high polyreactivity
35 | QVQLVESGGGLVQAGGSLRLSCAASGRIFGSYTMGWYRQAPGKERELVAGISRRGGSTYYADSVKGRFTISRDNAKNTVYLQMNSLKPEDTAVYYCAAEVYYFYFYIMDYWGQGTQVTVSS | high polyreactivity
36 | QVQLVESGGGLVQAGGSLRLSCAASGRIFGTNAMGWYRPAPGKERELVARITISTASTYYADSVKGRFTISRDNAKNTVSLQMNSLKPEDTAVYYCGVRWYIRSRPKVYKYDYWGQGTQVTVSS | high polyreactivity
37 | QVQLVESGGGLVQAGGSLRLSCAASGRIFGTNAMGWYRQAPGKERELVAAITWRGGSTYYADSVKGRFTISRDNAKNTVYLQMNSLKPVDTAVYYCAKDLVYWYQTIRAGISNYWGQGTQVTVSS | low polyreactivity
38 | QVQLVESGGGLVQAGGSLRLSCAASGRIFGVNAMGWYRQAPGKERELVAAISRSGGSTYYADSVKGRFTISRDNAKNTVYLQMNSRKPEDTAVYYCATDHFYYRQKYWAYYYWGQGTQVTVSS | high polyreactivity
39 | QVQLVESGGGLVQAGGSLRLSCAASGRIFGVNAMGWYRQAPWKERELVAAINYSGGRTSYADSVKGRFTISRDNAKNTVYLQMNSLKPEDTAVYYCNAGGRRRIFAHSSTGDYWGQGTQVTVSS | high polyreactivity
40 | QVQLVESGGGLVQAGGSLRLSCAASGRIFGVNARGWYRQAPGKERELVATITRGGNTNYADSVKGRFTISRDNAKNTVYLQMNSLKPEDTAVYYCNADRYRTFSRLPYGEYEYWGQGTQVTVSS | low polyreactivity
41 | QVQLVESGGGLVQAGGSLRLSCAASGRIFGVYAKGWYRQAPGKERELVAAISEGGGSTNYADSVKGRFTISRDNAKNTVYLQMNSLKPEETSVYYCAATYLTGVRRYYSWGQGSQVTVSS | low polyreactivity
42 | QVQLVESGGGLVQAGGSLRLSCAASGRIFGVYAMGCYRQAPGKDRELVAAISSTGGSTYYADSVKGRFTISRDNAKNTVYLQMNSMKPEDTAVYYCEYDYWGQGTQVTVSS | low polyreactivity
43 | QVQLVESGGGLVQAGGSLRLSCAASGRIFGVYAMGWYRQAAWKERELVAAITRGASTYYADSVKGRFTISRDNAKNTVYLQMNSLKPEDPAVYYCAVSQYRGIYRKYDYWGQGTQVTVSS | high polyreactivity
